In the supplement of paper PMC10567573 one finds protein stability index data, which are given here for 96 variants.

B1: PDZK1 (parent)
chain: FQAKKIPIVSSLADPLDTPPDSKE
B2: MYL5 (parent)
chain: DVAGNLDYKALSYVITHGEEKEE
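Further: lentivirally expressed fusions sorted by FACS into six bins by GFP to DsRed ratio, PSI derived from sequencing read proportions per bin multiplied by bin number.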

The variants in the first data set derive from B1. Put plainly: protein stability index of a GFP-peptide fusion (GPS, HEK-293T) (PSI 1-6); higher = more stable. The note with it: c terminus: a fixed tail appended.
Regarding FQAKKIPIVSSYADPLDTPPDSKE [L12Y], the protein stability index came to 3.75.
Still for that read-out and setting: to FQAKKIPIVSSLAMPLDTPPDSKE [D14M] belongs 3.55.
Still for that read-out and setting: to FQAKKIPIVSSLAKPLDTPPDSKE [D14K] belongs 3.65; to FQAKKIPIVSSLALPLDTPPDSKE [D14L], 3.5; to FQAKKIPIVSSLARPLDTPPDSKE [D14R], 3.81.
Same read-out and setting: the figure for FQAKKIPIVSSLAEPLDTPPDSKE [D14E] is 3.65.
On to FQAKKIPIVSSLAQPLDTPPDSKE [D14Q], for which the protein stability index came to 3.86.
The same measure, in the same setting: to FQAKKIPIVSSLAVPLDTPPDSKE [D14V] belongs 4.1.
Take FQAKKIPIVSVLADPLDTPPDSKE [S11V]: the protein stability index amounted to 3.38.
Still for that read-out and setting: the figure for FQAKKIPIVSSLADALDTPPDSKE [P15A] is 3.61.
On the same count and under the same terms, to FQAKKIPIVSSLADRLDTPPDSKE [P15R] belongs 3.73; to FQAKKIPIVSSLADLLDTPPDSKE [P15L], 2.86; to FQAKKIPIVSSLADNLDTPPDSKE [P15N], 3.64.
The same measure, in the same setting: to FQAKKIPIVSSLADCLDTPPDSKE [P15C] belongs 3.55; to FQAKKIPIVSSLADGLDTPPDSKE [P15G], 4.12.
For FQAKKIPIVSSLADFLDTPPDSKE [P15F], the protein stability index is 3.23.
The same measure, in the same setting: the figure for FQAKKIPIVSSLADILDTPPDSKE [P15I] is 3.53; for FQAKKIPIVSSLADKLDTPPDSKE [P15K] it is 3.25; for FQAKKIPIVSSLADQLDTPPDSKE [P15Q] it is 3.71.
For FQAKKIPIVSSLADTLDTPPDSKE [P15T], the protein stability index was 3.57.
The same measure, in the same setting: the figure for FQAKKIPIVSSLADSLDTPPDSKE [P15S] is 3.58; for FQAKKIPIVSSLADHLDTPPDSKE [P15H] it is 3.85.
Regarding FQAKKIPIVSSLADDLDTPPDSKE [P15D], the protein stability index turned out to be 4.1.
The same measure, in the same setting: the figure for FQAKKIPIVSSLADMLDTPPDSKE [P15M] is 3.11; for FQAKKIPIVSSLADELDTPPDSKE [P15E] it is 3.48.

Variants of B2 are the subject of the next data set. The description is as above. As to conditions: c terminus: native.
Take DVAGNLDYKALLYVITHGEEKEE [S12L]: the protein stability index turned out to be 1.77.
Still for that read-out and setting: the figure for DVAGNLDYKALPYVITHGEEKEE [S12P] is 2.46.
Take DLAGNLDYKALSYVITHGEEKEE [V2L]: the protein stability index came to 1.78.
Still for that read-out and setting: to DSAGNLDYKALSYVITHGEEKEE [V2S] belongs 1.82.
The same measure, in the same setting: the figure for DCAGNLDYKALSYVITHGEEKEE [V2C] is 2.31; for DFAGNLDYKALSYVITHGEEKEE [V2F] it is 1.19; for DVAGNLDYKALSYVFTHGEEKEE [I15F] it is 2.49.
Same read-out and setting: to DVAGNLDYKMLSYVITHGEEKEE [A10M] belongs 2.23; to DVAGNLDYKDLSYVITHGEEKEE [A10D], 2.09.
For DVAGNLDYKRLSYVITHGEEKEE [A10R], the protein stability index is 1.74.
The same measure, in the same setting: to DVAGNLDYKKLSYVITHGEEKEE [A10K] belongs 3.21; to DVAPNLDYKALSYVITHGEEKEE [G4P], 1.61; to DVALNLDYKALSYVITHGEEKEE [G4L], 2.03.
As to DVARNLDYKALSYVITHGEEKEE [G4R], the protein stability index amounted to 2.5.
Still for that read-out and setting: the figure for DVAGNLDYKALSYVITHGKEKEE [E19K] is 3.27; for DVAGNLDYKALSYVITHGNEKEE [E19N] it is 3.3; for DVAGNNDYKALSYVITHGEEKEE [L6N] it is 3.84.
Same read-out and setting: the figure for DVAGNLDYKALSYEITHGEEKEE [V14E] is 2.51.
The same measure, in the same setting: to DVAGNLDYKALSYIITHGEEKEE [V14I] belongs 3.02.
For DVAGNLDYKALSYDITHGEEKEE [V14D], the protein stability index is 2.97.
On the same count and under the same terms, to DVAGNLDYKALSYVITHGECKEE [E20C] belongs 1.47.
The same measure, in the same setting: to DVAGNLDYKALSYVITTGEEKEE [H17T] belongs 2.12.
Still for that read-out and setting: to DVAGNLDYKALSYVITQGEEKEE [H17Q] belongs 1.96; to DVAGNLDYKALSYVITDGEEKEE [H17D], 2.89; to DVAGNLDYKALSYVITMGEEKEE [H17M], 1.64.
DVAGNLDYKALSYVITWGEEKEE [H17W]: the protein stability index amounted to 1.79.
The same measure, in the same setting: to DVAGNLDYKALSYVITAGEEKEE [H17A] belongs 1.39; to DVAGNLDYKALSYVITNGEEKEE [H17N], 3.23; to DVAGELDYKALSYVITHGEEKEE [N5E], 2.43.
DVAGMLDYKALSYVITHGEEKEE [N5M]: the protein stability index was 1.3.
The same measure, in the same setting: to DVAGNLDYKALSYVITHQEEKEE [G18Q] belongs 1.94.
Same read-out and setting: to DVAGNLDYKALSMVITHGEEKEE [Y13M] belongs 2.08.
On the same count and under the same terms, the figure for DVAGNLDYKALSEVITHGEEKEE [Y13E] is 2.9; for DVAGNLDYKALSCVITHGEEKEE [Y13C] it is 2.63; for DVAGNLDYKALSLVITHGEEKEE [Y13L] it is 2.01.
As for KVAGNLDYKALSYVITHGEEKEE [D1K], the protein stability index stood at 2.34.
Turning to IVAGNLDYKALSYVITHGEEKEE [D1I], the protein stability index stood at 1.97.
DVAGNLDYKALSYVIFHGEEKEE [T16F]: the protein stability index was 3.87.
For DVAGNLDYKALSYVICHGEEKEE [T16C], the protein stability index stood at 1.53.
Same read-out and setting: the figure for DVAGNLDYKALSYVIGHGEEKEE [T16G] is 3.04; for DVAGNLDYKALSYVINHGEEKEE [T16N] it is 3.03.
The same measure, in the same setting: the figure for DVAGNLDYKALSYVIQHGEEKEE [T16Q] is 2.56.
The same measure, in the same setting: the figure for DVAGNLDYKAASYVITHGEEKEE [L11A] is 2.56.
As to DVAGNLDYKASSYVITHGEEKEE [L11S], the protein stability index amounted to 1.36.
On the same count and under the same terms, the figure for DVAGNLDYKACSYVITHGEEKEE [L11C] is 2.64; for DVAGNLDYYALSYVITHGEEKEE [K9Y] it is 2.3; for DVAGNLDYMALSYVITHGEEKEE [K9M] it is 1.6.
Turning to DVAGNLDYCALSYVITHGEEKEE [K9C], the protein stability index came out at 3.09.
Same read-out and setting: the figure for DVAGNLDYLALSYVITHGEEKEE [K9L] is 2.75.
As to DVAGNLDYDALSYVITHGEEKEE [K9D], the protein stability index was 2.57.
The same measure, in the same setting: to DVAGNLDYFALSYVITHGEEKEE [K9F] belongs 2.23.
Still for that read-out and setting: the figure for DVAGNLDYSALSYVITHGEEKEE [K9S] is 1.56.
Same read-out and setting: to DVAGNLDIKALSYVITHGEEKEE [Y8I] belongs 2.11; to DVAGNLDHKALSYVITHGEEKEE [Y8H], 1.48; to DVAGNLDPKALSYVITHGEEKEE [Y8P], 2.05.
Take DVAGNLDYKALSYVITHGEEKEG [E23G]: the protein stability index was determined as 4.37.
Turning to DVAGNLDYKALSYVITHGEEKEN [E23N], the protein stability index came out at 4.99.
On the same count and under the same terms, to DVAGNLDYKALSYVITHGEEKEY [E23Y] belongs 3.97; to DVAGNLDYKALSYVITHGEEKFE [E22F], 4.43.
On the same count and under the same terms, to DVAGNLDYKALSYVITHGEEKNE [E22N] belongs 4.88.
As to DVAGNLDYKALSYVITHGEEKIE [E22I], the protein stability index was 4.14.
Same read-out and setting: to DVAGNLDYKALSYVITHGEEKYE [E22Y] belongs 4.13; to DVAGNLDYKALSYVITHGEEKGE [E22G], 4.27; to DVAGNLDYKALSYVITHGEEKKE [E22K], 5.21.
Same read-out and setting: to DVAGNLDYKALSYVITHGEETEE [K21T] belongs 2.05; to DVAGNLDYKALSYVITHGEEVEE [K21V], 1.54; to DVKGNLDYKALSYVITHGEEKEE [A3K], 2.15.
Same read-out and setting: to DVIGNLDYKALSYVITHGEEKEE [A3I] belongs 1.71; to DVWGNLDYKALSYVITHGEEKEE [A3W], 3.06; to DVEGNLDYKALSYVITHGEEKEE [A3E], 2.1.
With DVAGNLRYKALSYVITHGEEKEE [D7R], the protein stability index worked out at 1.69.
